One data set deals with MKN45 cells. Nature of the data set: FACS binding to cell line MKN45, which highly expresses c-Met. Details: species or system human. As to conditions: flow cytometry, read-out: MKN45/FCAS Binding activity. On the procedure:
A FACS method was used to detect the binding activity of c-Met humanized antibodies with the cell line MKN45, which highly expresses c-Met.
MKN45 cells (JCRB, Cat No.: JCRB0254) were resuspended in RPMI1640 medium (GIBCO, Cat No.: 11835-030) which contains 10% (v/v) fetal calf serum (FBS GIBCO, Cat No.: 10099-141) and Penicillin/Streptomycin (GIBCO, Cat No.: 15070-063) to reach 10,000,000 cells/mL. 2 mL of resuspended MKN45 cells was added to 96-well microtiter plate (Corning, Cat No.: 3799) at 150,000 cells/well, and 8 concentrations of c-Met antibody (5-fold gradient diluted, starting from 20 μg/mL) were added to the corresponding wells, and the final volume was 100 μL. The plate was incubated for 1 hour at 4° C. FACS buffer (PBS comprising 2.5% (v/v) FBS (Hyclone, Cat: SH30256.01B)) was added. The plate was centrifuged under 4° C. at 1300 rmp for 4 minutes, and the supernatant was discarded. This procedure was repeated three times. 100 μL of secondary antibodies (Fluorescence labeled goat-anti-mouse secondary antibodies with 1:200 dilution, Biolegend, Cat No. 405307; Fluorescence labeled anti-human secondary antibody with 1:30 dilution, Biolegend, Cat No. 409304) were added to each well, and the plate was incubated for 1 hour at 4° C. […] FACS buffer was added to resuspend the cells, and the prepared samples were detected by flow cytometry (BD FACS Array).
Background: Flow cytometry measures light scatter and fluorescence of single cells or particles in a stream.

The next data set deals with T1, c-Met antigen Sema-His (Homo sapiens, UniProt P08581).
T1 construct: Flag (C); His tag (6xHis) (C); made in house; host or cells: 293F cells (Invitrogen, Cat # R790-07); vector pEE6.4; c-Met gene template origene RC217003
Nature of the data set: SPR (BIACore) affinity to c-Met antigen. It is filed as binding. As to conditions: 1:1 Langmuir model. How it is done: The affinity of c-Met antibody to c-Met antigen Sema-His was detected by surface plasmon resonance (SPR) in the invention.
Anti-mouse IgG (GE Life Sciences catalog # BR-1008-38) or anti-human IgG (GE Life Sciences catalog # BR-1008-39) antibodies were respectively diluted to 30 μg/mL and 50 μg/mL by sodium acetate solution pH 5.0 (GE Healthcare, Cat # BR-1003-51). An amino coupling kit (GE Life Sciences, Cat # BR100050) […] the test channels and control channels on a CM5 chip (GE Life Sciences catalog # BR-1000-12), and the coupling level was set at 15000 RU. The c-Met antibody was diluted with Running buffer PBS (Hyclone, Cat # SH30256.01B)+0.05% P20 (GE Life Sciences, Cat # BR-1000-54) to 1.5 μg/mL. Antigen Sema-His was diluted to 200 nM with running buffer, and then diluted at a 1:2 dilution with the same buffer until 0.78 nM was reached. The diluted antibody passed through the test channel for 1 minute at a speed of 30 μL/min, and the antigen passed through the test channels and control channels for 3 minutes at the same speed. 10 minutes after dissociation, the flow speed was adjusted to 10 μL/min, and regeneration buffer was passed through test channels and control channels for 3 minutes. Data was fitted by BiaEvaluation 4.1 after double deduction, and the fitting model was a 1:1 Langmuir model.

The nature of data set [1]: Biophysical stability: deamination by LC-MS. The class given is physicochemical. As to conditions: 4° C., 3.5 months. On the procedure:
To evaluate the biophysical stability of the anti c-Met antibodies of the invention, such as the presence of glycosylation and deamination sites and stability, LC-MS analysis was used.
The molecular weight of the heavy and light chains was directly detected by LC-MS to analyze glycosylation. Deamination was analyzed by LC-MS at 4° C. for long time (at least 3 months), or at 40° C. for 21 days under an accelerated condition. Samples treated with different conditions were diluted to 2 mg/mL with pH 7.2 Tris-HCl; final concentrations of 10 mM of TCEP and 6M of urea (AMRESCO, Cat #0378)3 were added, then the samples were incubated for 20 minutes at 37° C. IAA (Sigma-Aldrich, Cat # I1149) with a final concentration of 20 mM was added and was incubated for 15 minutes in darkness to protect the sulfhydryl group. The pH of the sample was adjusted by dilution with Tris-HCl, pH 7.2, and protease (Sigma-Aldrich, Cat # T6567) was added at a ratio by weight of 10:1 (protein: enzyme). The samples were incubated at 37° C. for 25 minutes, and then formic acid with a final concentration of 0.1% (Fluca, Cat #94318) was added to terminate the reactions. Samples were centrifuged and analyzed by LC-MS.
BiopharmaLynx was used to analyze the presence of deamination. […] Peak area was obtained by integration, and the percentages of deamination and oxidation product were calculated.

T1 sequence (P08581 with tags, fused parts or gaps limits assumed): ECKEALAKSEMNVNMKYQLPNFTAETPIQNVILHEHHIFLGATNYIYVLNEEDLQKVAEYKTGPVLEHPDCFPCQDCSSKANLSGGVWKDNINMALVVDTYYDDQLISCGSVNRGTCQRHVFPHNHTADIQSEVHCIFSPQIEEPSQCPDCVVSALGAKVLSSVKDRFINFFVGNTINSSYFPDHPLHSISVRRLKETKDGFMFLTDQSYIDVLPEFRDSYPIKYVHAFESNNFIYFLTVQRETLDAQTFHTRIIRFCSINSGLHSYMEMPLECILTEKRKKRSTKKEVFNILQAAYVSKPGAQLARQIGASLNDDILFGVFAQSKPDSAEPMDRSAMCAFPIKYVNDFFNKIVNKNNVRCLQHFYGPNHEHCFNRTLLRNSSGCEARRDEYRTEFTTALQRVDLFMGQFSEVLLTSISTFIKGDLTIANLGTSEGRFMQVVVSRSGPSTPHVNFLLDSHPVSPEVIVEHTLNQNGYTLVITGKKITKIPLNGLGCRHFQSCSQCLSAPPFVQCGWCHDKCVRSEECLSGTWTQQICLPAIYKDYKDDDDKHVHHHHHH

B1: Ab-9 (antibody)
heavy: QVTLKESGPVLVKPTETLTLTCTVSGFSLPNYGVHWVRQPPGKALEWLAVIWSGGSTNYAAAFVSRLRISKDTSKSQVVFTMNNMDPVDTATYYCARNHDNPYNYAMDYWGQGTTVTVSSASTKGPSVFPLAPCSRSTSESTAALGCLVKDYFPEPVTVSWNSGALTSGVHTFPAVLQSSGLYSLSSVVTVPSSNFGTQTYTCNVDHKPSNTKVDKTVERKCCVECPPCPAPPVAGPSVFLFPPKPKDTLMISRTPEVTCVVVDVSHEDPEVQFNWYVDGVEVHNAKTKPREEQFNSTFRVVSVLTVVHQDWLNGKEYKCKVSNKGLPAPIEKTISKTKGQPREPQVYTLPPSREEMTKNQVSLTCLVKGFYPSDIAVEWESNGQPENNYKTTPPMLDSDGSFFLYSKLTVDKSRWQQGNVFSCSVMHEALHNHYTQKSLSLSPGK
light: DIVLTQSPASLAVSPGQRATITCRANKSVSTSTYNYLHWYQQKPGQPPKLLIYLASNLASGVPARFSGSGSGTDFTLTINPVEANDTANYYCQHSRDLPPTFGQGTKLEIKRTVAAPSVFIFPPSDEQLKSGTASVVCLLNNFYPREAKVQWKVDNALQSGNSQESVTEQDSKDSTYSLSSTLTLSKADYEKHKVYACEVTHQGLSSPVTKSFNRGEC
Regarding B1, the EC50 in the data set on MKN45 cells worked out at 1.6 nM. The affinity in the data set with c-Met antigen Sema-His, expressed as Kd, was 4 nM. Further, the “Analysis of deamination: percentage of deaminated molecules” value in data set [1] is 0.66%.

The term Kd denotes a measure of binding affinity in units of concentration. Low values mean a tighter complex, high ones a looser complex.

The record behind these values is patent publication US20200054764A1, “MEDICAL USE OF ANTI-C MET ANTIBODY-CYTOTOXIC DRUG CONJUGATE” (priority 2016, published 2020).
